# Test system: WT (GM05659) and NPC (GM03123) human fibroblasts
# Assay: Sub-cellular localization and uptake of Alexa555-conjugated rhASM
# Assay type: cell-based
# Settings: data not shown
# Procedure: WT (GM5659) and NPC (GM03123) Fbs were incubated with or without 3 μg/mL Alexa555-conjugated rhASM for 24 hours. To remove surface-bound label, the cells were further incubated for 15 min with a growth medium without the enzyme. Finally, the cells were washed with PBS, fixed with 1.5% PFA, and stained with filipin for imaging and quantification. […] Color overlays for filipin (green) and rhASM-Alexa555 (red) are shown in panels (C, F and I). The images in the inset are the zoomed color overlays of the region marked in (C, F and I). Scale bar=10 μm.
# For identifying the localization of rhASM in the cells, recombinant enzyme was conjugated with Alexa555 (Invitrogen) according to the manufacturer's protocol. Normal (GM05659) and NPC1 human fibroblasts (GM03123) were incubated in a medium containing 3 μg/mL Alexa555-rhASM for 24 h prior to fixing and staining with filipin. Images were acquired using standard UV and TRITC filters for filipin and Alexa555-labeled rhASM, and quantified.
# To ascertain whether exogenously added rhASM was localized and processed in late endosomal organelles, WT (GM05659) and NPC (GM03123) human fibroblasts were incubated for 24 hours in the absence or presence of 3 μg/mL of Alexa555-labeled rhASM. […] The cells were then washed, fixed and stained with filipin for imaging and quantification. […]
molecule,measurement,value
"rhASM-Alexa555: recombinant enzyme conjugated with Alexa555 (conjugate, UniProt P17405 47-631, looked up, Alexa555 label) Sphingomyelin …: LALSDSRVLWAPAEAHPLSPQGHPARLHRIVPRLRDVFGWGNLTCPICKGLFTAINLGLKKEPNVARVGSVAIKLCNLLKIAPPAVCQSIVHLFEDDMVEVWRRSVLSPSEACGLLLGSTCGHWDIFSSWNISLPTVPKPPPKPPSPPAPGAPVSRILFLTDLHWDHDYLEGTDPDCADPLCCRRGSGLPPASRPGAGYWGEYSKCDLPLRTLESLLSGLGPAGPFDMVYWTGDIPAHDVWHQTRQDQLRALTTVTALVRKFLGPVPVYPAVGNHESTPVNSFPPPFIEGNHSSRWLYEAMAKAWEPWLPAEALRTLRIGGFYALSPYPGLRLISLNMNFCSRENFWLLINSTDPAGQLQWLVGELQAAEDRGDKVHIIGHIPPGHCLKSWSWNYYRIVARYENTLAAQFFGHTHVDEFEVFYDEETLSRPLAVAFLAPSATTYIGLNPGYRVYQIDGNYSGSSHVVLDHETYILNLTQANIPGAIPHWQLLYRARETYGLPNTLPTAWHNLVYRMRGDMQLFQTFWFLYHKGHPPSEPCGTPCRLATLCAQLSARADSPALCRHLMPDGSLPEAQSLWPRPLFC",effect of Alexa555 conjugation on enzyme activity,did not affect its activity

# From US10124019B2, “Compositions and their use for removing cholesterol” (Cornell University, priority 2009, dated 2018)
